Source: patent US20060193821, “Aptamers to the human IL-12 cytokine family and their use as autoimmune disease therapeutics” (published 2006)

T1: IL-23 (mouse, p19/p40 heterodimer) (Mus musculus, UniProt Q9EQ14;P43432 SEQ:22-196,SEQ:23-335)
T1 sequence 1: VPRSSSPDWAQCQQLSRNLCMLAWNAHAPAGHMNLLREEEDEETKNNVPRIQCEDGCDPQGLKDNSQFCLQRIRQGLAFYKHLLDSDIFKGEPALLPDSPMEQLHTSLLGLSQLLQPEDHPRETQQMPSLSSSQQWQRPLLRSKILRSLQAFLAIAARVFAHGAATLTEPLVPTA
T1 sequence 2: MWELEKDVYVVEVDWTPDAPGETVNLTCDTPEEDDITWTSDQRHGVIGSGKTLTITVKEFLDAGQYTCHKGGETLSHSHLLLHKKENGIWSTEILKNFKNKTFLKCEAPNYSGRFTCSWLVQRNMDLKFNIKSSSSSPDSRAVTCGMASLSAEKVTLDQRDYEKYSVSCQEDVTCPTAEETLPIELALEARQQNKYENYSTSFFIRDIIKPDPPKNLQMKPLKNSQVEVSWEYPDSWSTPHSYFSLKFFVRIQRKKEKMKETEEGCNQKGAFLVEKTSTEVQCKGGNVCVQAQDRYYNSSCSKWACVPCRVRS

T2: IL-12 (mouse, p35/p40 heterodimer) (Mus musculus, UniProt P43431;P43432 SEQ:23-215,SEQ:23-335)
T2 sequence 1: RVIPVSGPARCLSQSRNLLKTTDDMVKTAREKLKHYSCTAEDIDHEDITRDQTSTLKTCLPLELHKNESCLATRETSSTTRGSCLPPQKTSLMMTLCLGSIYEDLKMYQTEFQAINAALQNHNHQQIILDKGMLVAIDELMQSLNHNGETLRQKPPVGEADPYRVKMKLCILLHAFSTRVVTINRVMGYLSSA
T2 sequence 2: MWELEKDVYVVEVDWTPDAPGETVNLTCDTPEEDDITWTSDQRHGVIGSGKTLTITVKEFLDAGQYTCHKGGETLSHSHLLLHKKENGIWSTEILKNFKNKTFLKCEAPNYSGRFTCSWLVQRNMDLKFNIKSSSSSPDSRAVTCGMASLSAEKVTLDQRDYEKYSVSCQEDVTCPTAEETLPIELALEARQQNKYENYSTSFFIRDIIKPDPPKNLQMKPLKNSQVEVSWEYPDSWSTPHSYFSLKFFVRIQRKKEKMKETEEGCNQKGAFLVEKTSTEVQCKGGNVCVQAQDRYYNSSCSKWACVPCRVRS


Assays:
[1] = molecular target: T3, IL-12 (human, p35/p40 heterodimer) (Homo sapiens, UniProt P29459;P29460 SEQ:57-253,SEQ:23-328); assay: filter; 1X PBS, 0.1 mg/mL BSA, 30 min RT; conditions: label: 32P
T3 sequence (P29459 23-219, chain 1 of 2): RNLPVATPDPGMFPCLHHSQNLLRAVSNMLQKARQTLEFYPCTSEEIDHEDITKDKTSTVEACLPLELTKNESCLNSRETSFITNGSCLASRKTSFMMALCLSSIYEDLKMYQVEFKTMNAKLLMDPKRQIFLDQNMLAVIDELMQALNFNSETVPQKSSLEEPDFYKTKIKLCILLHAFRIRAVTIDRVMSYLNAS
T3 sequence (P29460 23-328, chain 2 of 2): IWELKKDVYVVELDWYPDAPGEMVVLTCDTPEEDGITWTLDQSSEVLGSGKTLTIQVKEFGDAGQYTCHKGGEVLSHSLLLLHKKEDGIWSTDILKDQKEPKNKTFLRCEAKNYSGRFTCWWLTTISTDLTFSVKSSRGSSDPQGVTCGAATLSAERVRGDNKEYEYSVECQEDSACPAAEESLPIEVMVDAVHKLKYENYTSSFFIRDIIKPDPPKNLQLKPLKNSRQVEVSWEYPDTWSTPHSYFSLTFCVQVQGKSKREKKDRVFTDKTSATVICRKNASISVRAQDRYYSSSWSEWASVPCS
Procedure: (§1) rRfY mIL-23 Protein Binding Analysis: Dot blot binding assays were performed throughout the selections to monitor the protein binding affinity of the pools as previously described. When a significant level of binding of RNA in the presence of mIL-23 was observed, the pools were cloned using a TOPO TA cloning kit (Invitrogen, Carlsbad, Calif.) according to the manufacturer's instructions. For both mIL-23 selections, the Round 7 pool templates were cloned, and 16 individual clones from each selection were assayed using an 8-point mIL-23 titration. Seven of the 32 total clones screened had specific binding curves and are listed below in Table 16. […] Clones with high affinity to mIL-23 were subsequently screened for protein binding against mouse IL-12, human IL-23 and human IL-12 in the same manner.

[2] = molecular target: T1, IL-23 (mouse, p19/p40 heterodimer); assay: filter; 1X PBS, 0.1 mg/mL BSA, 30 min RT; conditions: tags: isolated in-house; label: 32P
Procedure: as §1

[3] = molecular target: T4, IL-23 (human, p19/p40 heterodimer) (Homo sapiens, UniProt Q9NPF7;P29460 SEQ:20-189,SEQ:23-328); assay: filter; 1X PBS, 0.1 mg/mL BSA, 30 min RT; conditions: tags: R&D Systems, carrier free; label: 32P
T4 sequence (Q9NPF7 20-189, chain 1 of 2): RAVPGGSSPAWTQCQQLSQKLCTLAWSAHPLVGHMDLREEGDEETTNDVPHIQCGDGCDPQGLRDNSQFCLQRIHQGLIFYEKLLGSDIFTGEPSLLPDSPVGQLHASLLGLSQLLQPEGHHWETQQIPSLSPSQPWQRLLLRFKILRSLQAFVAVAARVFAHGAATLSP
T4 sequence (P29460 23-328, chain 2 of 2): as the sequence (P29460 23-328, chain 2 of 2) above
Procedure: as §1

[4] = molecular target: T2, IL-12 (mouse, p35/p40 heterodimer); assay: filter; 1X PBS, 0.1 mg/mL BSA, 30 min RT; conditions: label: 32P
Procedure: as §1

[5] = molecular target: T3, IL-12 (human, p35/p40 heterodimer); assay: filter; 1X PBS, tRNA, ssDNA, BSA, 30 min RT; conditions: label: 5'-32P; G4 (predicted)
Procedure: (§2) The clones were 5′end labeled with γ-³²P ATP, and were assayed for both IL-23 and IL-12 binding in a 3-point dot blot screen (0 nM, 20 nM, and 100 nM h-IL-23; 0 nM, 20 nM, and 100 nM h-IL-12) (data not shown). […] KD values were determined by fitting an equation describing a 1:1 RNA:protein complex to the resulting data (fraction aptamer bound=amplitude*([IL-23]/(KD+[IL-23]))+background binding) (KaleidaGraph v. 3.51, Synergy Software). Results of protein binding characterization for the higher affinity clones are tabulated in Table 13, and corresponding clone sequences are listed in Table 12.

[6] = molecular target: T4, IL-23 (human, p19/p40 heterodimer); assay: filter; 1X PBS, tRNA, ssDNA, BSA, 30 min RT; conditions: tags: R&D Systems, carrier free; label: 5'-32P; G4 (predicted)
Procedure: as §2

[7] = molecular target: T3, IL-12 (human, p35/p40 heterodimer); assay: filter; PBS, tRNA, ssDNA, BSA
Procedure: as §2

[8] = molecular target: T4, IL-23 (human, p19/p40 heterodimer); assay: filter; PBS, tRNA, ssDNA, BSA; conditions: tags: R&D Systems, carrier free
Procedure: as §2

| Binder | Kd [1] [nM] | Kd [2] [nM] | Kd [3] [nM] | Kd [4] [nM] | Kd [5] [nM] | Kd [6] [nM] | Kd [7] [nM] | Kd [8] [nM] |
| --- | --- | --- | --- | --- | --- | --- | --- | --- |
| ARC1629 (ssRNA, 2'-F all C and U (rRfY)) RNA: GGAGCGCACUCAGCCACCGUAAUUCACAAGGUCCCUGAGUGCAGGGUUGUAUGUUUGUUUCGACCUCUCUGCUAGC | 75 | 34 | 31 | 103 |  |  |  |  |
| ARC632 (mixed, 2'-deoxy A and G, 2'-OMe C and U (dRmY)) RNA: GGGAGAGGAGAGAACGUUCUACAAUUGCAGGUGGUGCCGGGGGUUGGGGGCGGGUCGAUCGAUCGAUCAUCGAUG |  |  |  |  | 63.9 | 19.1 |  |  |
| ARC1628 (ssRNA, 2'-F all C and U (rRfY)) RNA: GGAGCGCACUCAGCCACAGGUGGCUUAAUACUGUAAAGACGUGCGCGCAGAGGGAUUUUCGACCUCUCUGCUAGC | 161 | 2 | 52 | 6 |  |  |  |  |
| ARC1632 (ssRNA, 2'-F all C and U (rRfY)) RNA: GGAGCGCACUCAGCCACCGGCUUAAUAUCCAAUAGGAACGUUCGCUCUGAGCAGGCGUUUCGACCUCUCUGCUAGC | 186 | 13 | 91 | 16 |  |  |  |  |
| ARC1631 (ssRNA, 2'-F all C and U (rRfY)) RNA: GGAGCGCACUCAGCCACGCCUACAAUUCACUGUGAUAUAUCGAAUUAUAGCCCUGGUUUCGACCUCUCUGCUAGC | 69 | 33 | 39 | 72 |  |  |  |  |
| ARC621 (mixed, 2'-deoxy A and G, 2'-OMe C and U (dRmY)) RNA: GGGAGAGGAGAGAACGUUCUACAGGCGGUUACGGGGGAUGCGGGUGGGACAGGUCGAUCGAUCGAUCAUCGAUG |  |  |  |  | 112 | 28.8 |  |  |
| ARC627 (mixed, 2'-deoxy A and G, 2'-OMe C and U (dRmY)) RNA: GGGAGAGGAGAGAACGUUCUACAGGCAAGUAAUUGGGGAGUGCGGGCGGGGUGUCGAUCGAUCGAUCAUCGAUG |  |  |  |  | 79.5 | 7 |  |  |
| ARC626 (mixed, 2'-deoxy A and G, 2'-OMe C and U (dRmY)) RNA: GGGAGAGGAGAGAACGUUCUACAGGCAAGUAAUUGGGGAGUGCGGGCGGGGGGUCGAUCGAUCGAUCAUCGAUG |  |  |  |  | 69.8 | 10.1 |  |  |
| ARC643 (mixed, deoxy A,G; 2'-OMe C,U) RNA: GGGAGAGGAGAGAACGUUCUACAGGCCGAUGAGGGGGAGCAGUGGGUGGGGGGUCGAUCGAUCGAUCAUCGAUG |  |  |  |  |  |  | 309 | 71.6 |
| ARC1634 (ssRNA, 2'-F all C and U (rRfY)) RNA: GGAGCGCACUCAGCCACCUUGGGCUUAAUACCUAUCGGAUGUGCGCCUAGCACGGAAUUUCGACCUCUCUGCUAGC | 63 | 3 | 39 | 29 |  |  |  |  |
| ARC642 (mixed, deoxy A,G; 2'-OMe C,U) RNA: GGGAGAGGAGAGAACGUUCUACAGGCGCAGCCAGCGGGGAGUGAGGGUGGGGGUCGAUCGAUCGAUCAUCGAUG |  |  |  |  |  |  | 188 | 37.2 |
| ARC644 (mixed, deoxy A,G; 2'-OMe C,U) RNA: GGGAGAGGAGAGAACGUUCUACUAGUGAGGCGGUAACGGGGGGUGAGGGUGGGGUCGAUCGAUCGAUCAUCGAUG |  |  |  |  |  |  | 193 | 34.5 |
| ARC635 (mixed, deoxy A,G; 2'-OMe C,U) RNA: GGGAGAGGAGAGAACGUUCUACAGGCUCAAAAGAGGGGGAUGUGGGAGGGGGUCGAUCGAUCGAUCAUCGAUG |  |  |  |  |  |  | 431 | 172 |
| ARC646 (mixed, deoxy A,G; 2'-OMe C,U) RNA: GGGAGAGGAGAGAACGUUCUACACAUGGCUCGAAAGAGGGGCGUGAGGGUGGGGUCGAUCGAUCGAUCAUCGAUG |  |  |  |  |  |  | 383 | 208 |
| ARC616 (mixed, 2'-deoxy A and G, 2'-OMe C and U (dRmY)) RNA: GGGAGAGGAGAGAACGUUCUACGAUAUAGGCGGUACGGGGGGAGUGGGCUGGGGUCGAUCGAUCGAUCAUCGAUG |  |  |  |  | 52.1 | 13.1 |  |  |
| ARC611 (mixed, 2'-deoxy A and G, 2'-OMe C and U (dRmY)) RNA: GGGAGAGGAGAGAACGUUCUACAGGCAAGGCAAUUGGGGAGUGUGGGUGGGGGGUCGAUCGAUCGAUCAUCGAUG |  |  |  |  | 123 | 21.3 |  |  |
| ARC620 (mixed, deoxy A,G; 2'-OMe C,U) RNA: GGGAGAGGAGAGAACGUUCUACAGGAAAGGCGCUUGCGGGGGGUGAGGGAGGGGUCGAUCGAUCGAUCAUCGAUG |  |  |  |  |  |  | 179 | 44.8 |
| ARC1633 (ssRNA, 2'-F all C and U (rRfY)) RNA: GGAGCGCACUCAGCCACAGCUCGGUGGCUUAAUAUCUAUGUGAACGUGCGCAACAGCUUUCGACCUCUCUGCUAGC | 195 | 17 | 79 | 44 |  |  |  |  |
| ARC628 (mixed, deoxy A,G; 2'-OMe C,U) RNA: GGGAGAGGAGAGAACGUUCUACAGGCAAGGCAAUUGGGGAGCGUGGGUGGGGGGGUCGAUCGAUCGAUCAUCGAUG |  |  |  |  |  |  | 146 | 57.8 |
| ARC614 (mixed, 2'-deoxy A and G, 2'-OMe C and U (dRmY)) RNA: GGGAGAGGAGAGAACGUUCUACAAGGCGGUACGGGGAGUGUGGGUUGGGGCCGGUCGAUCGAUCGAUCAUCGAUG |  |  |  |  | 54.4 | 3.1 |  |  |
| ARC1630 (ssRNA, 2'-F all C and U (rRfY)) RNA: GGAGCGCACUCAGCCACUCUACUCGAUAUAGUUUAUCGAGCCGGUGGUAGAUUAUGAUUUCGACCUCUCUGCUAGC | 239 | 14 | 65 | 18 |  |  |  |  |
| ARC645 (mixed, deoxy A,G; 2'-OMe C,U) RNA: GGGAGAGGAGAGAACGUUCUACAGGUAGGCAAGAUAUUGGGGGAAGCGGGUGGGGUCGAUCGAUCGAUCAUCGAUG |  |  |  |  |  |  | 137 | 33.5 |
| ARC612 (mixed, 2'-deoxy A and G, 2'-OMe C and U (dRmY)) RNA: GGGAGAGGAGAGAACGUUCUACAGGCAAGUAAUUGGGGAGUGCGGGCGGGGGGGUCGAUCGAUCGAUCAUCGAUG |  |  |  |  | 41.7 | 5.8 |  |  |
